Results reported in publication PMC2837404, “The Human Polyoma JC Virus Agnoprotein Acts as a Viroporin” (PLoS Pathogens, 2010).
Values joined by “and” are separate entries in the source; they are usually repeats but may differ in a detail not shown here. Equal entries are not always repeated.

Biological target: the molecule itself
Test: cross-linking; SVG-A cells infected with JCV for 1 week, reacted as whole cells with 0.5, 1, 2 or 5 mM DSS (or DMSO) for 2 h at 4°C in DPBS (+), quenched with 50 mM Tris pH 7.5, lysed in 1% Triton X-100; SDS-PAGE and immunoblot with anti-agnoprotein antibody

B1: JCV agnoprotein expressed in JCV-infected SVG-A cells (natural protein)
chain: MVLRQLSRKASVKVSKTWSGTKKRAQRILIFLLEFLLDFCTGEDSVDGKKRQRHSGLTEQTYSALPEPKAT
notes: JC virus (JCV) agnoprotein made from the viral genome in infected cells; monomer about 8 kDa; The virus was prepared from JCI cells or JC virus-infected SVG-A cells; source: SVG-A cells infected with JCV for 1 week
  stoichiometry N: 2 and 3 and 4 and 5
